Laboratory results from article PMC1636342.
Like-named read-outs stand apart in the source and are kept apart here.

How the values were obtained:
Experiment in all cases: tryptophan fluorescence quenching
Bs-CspB [1] = molecular target: T1, Bs-CspB (Bacillus subtilis, UniProt P32081 1-67)
Bs-CspB [2] = molecular target: T1, Bs-CspB; remark: listed apart in the source
Bs-CspB [3] = molecular target: T1, Bs-CspB; remark: listed apart in the source
Bs-CspB [4] = molecular target: T1, Bs-CspB; remark: listed apart in the source
Bs-CspB G35P = Bs-CspB G35P (Bacillus subtilis, UniProt P32081 1-67, G35P)
Bs-CspB F38A = Bs-CspB F38A (Bacillus subtilis, UniProt P32081 1-67, F38A)
Bs-CspB D25A = Bs-CspB D25A (Bacillus subtilis, UniProt P32081 1-67, D25A)
Bs-CspB H29Q = Bs-CspB H29Q (Bacillus subtilis, UniProt P32081 1-67, H29Q)
Bs-CspB K13Q = Bs-CspB K13Q (Bacillus subtilis, UniProt P32081 1-67, K13Q)
Bs-CspB Q59A = Bs-CspB Q59A (Bacillus subtilis, UniProt P32081 1-67, Q59A)
Bs-CspB F15A = Bs-CspB F15A (Bacillus subtilis, UniProt P32081 1-67, F15A)
Bs-CspB G54A = Bs-CspB G54A (Bacillus subtilis, UniProt P32081 1-67, G54A)
Bs-CspB F30W = Bs-CspB F30W (Bacillus subtilis, UniProt P32081 1-67, F30W)
Bs-CspB G35A = Bs-CspB G35A (Bacillus subtilis, UniProt P32081 1-67, G35A)
Bs-CspB F15Y = Bs-CspB F15Y (Bacillus subtilis, UniProt P32081 1-67, F15Y)
Bs-CspB F30A = Bs-CspB F30A (Bacillus subtilis, UniProt P32081 1-67, F30A)
Bs-CspB F27A = Bs-CspB F27A (Bacillus subtilis, UniProt P32081 1-67, F27A)
Bs-CspB F17A = Bs-CspB F17A (Bacillus subtilis, UniProt P32081 1-67, F17A)
Bs-CspB P58A = Bs-CspB P58A (Bacillus subtilis, UniProt P32081 1-67, P58A)
Bs-CspB K7A = Bs-CspB K7A (Bacillus subtilis, UniProt P32081 1-67, K7A)
Bs-CspB G54P = Bs-CspB G54P (Bacillus subtilis, UniProt P32081 1-67, G54P)
Bs-CspB R56A = Bs-CspB R56A (Bacillus subtilis, UniProt P32081 1-67, R56A)
Bs-CspB [5] = molecular target: T1, Bs-CspB; remark: listed apart in the source
Bs-CspB [6] = molecular target: T1, Bs-CspB; remark: listed apart in the source
Bs-CspB [7] = molecular target: T1, Bs-CspB; remark: listed apart in the source

B1: Y-box25 (ssDNA)
DNA: ATCCTACTGATTGGCCCAGGTGCTG
Kd (Bs-CspB [1]): 3920 ± 45 nM

B2: dcb1 (ssDNA)
DNA: TTATTAG
Kd (Bs-CspB [2]): 20 ± 3 nM

B3: dcb1_a (ssDNA)
DNA: ATTATTTTTGTTC
Kd (Bs-CspB [3]): 44 ± 2 nM

B4: dcb1_b (ssDNA)
DNA: GAGCAAGAATAGG
Kd (Bs-CspB [3]): 1160 ± 90 nM

B5: dcb1_br (ssDNA)
DNA: GGATAAGAACGAG
Kd (Bs-CspB [3]): 1090 ± 110 nM

B6: dcb2_a (ssDNA)
DNA: TTTAAGAAGAAAGTTTT
Kd (Bs-CspB [3]): 460 ± 34 nM

B7: dcb2_b (ssDNA)
DNA: GAGTTTTGGTCTTGAA
Kd (Bs-CspB [3]): 43 ± 2 nM

B8: dcb2_br (ssDNA)
DNA: AAGTTCTGGTTTTGAG
Kd (Bs-CspB [3]): 30 ± 2 nM

B9: dcb2ds_13 (ssDNA)
DNA: GTTTTGTAAGAGT
Kd (Bs-CspB [3]): 66 ± 21 nM

B10: dT7 (ssDNA)
DNA: TTTTTTT
Kd (Bs-CspB [4]): 1.8 ± 0.4 nM
Kd (Bs-CspB G35P): 118 ± 5 nM
Kd (Bs-CspB F38A): 228 ± 9 nM
Kd (Bs-CspB D25A): 21.4 ± 0.5 nM
Kd (Bs-CspB H29Q): 104 ± 6 nM
Kd (Bs-CspB K13Q): 25 ± 3 nM
Kd (Bs-CspB Q59A): 2.7 ± 0.4 nM
Kd (Bs-CspB F15A): 135 ± 4 nM
Kd (Bs-CspB G54A): 1.3 ± 0.3 nM
Kd (Bs-CspB F30W): 1.3 ± 0.3 nM
Kd (Bs-CspB G35A): 1.1 ± 0.3 nM
Kd (Bs-CspB F15Y): 1.4 ± 0.4 nM
Kd (Bs-CspB F30A): 208 ± 11 nM
Kd (Bs-CspB F27A): 286 ± 7 nM
Kd (Bs-CspB F17A): 345 ± 63 nM
Kd (Bs-CspB P58A): 1.3 ± 0.2 nM
Kd (Bs-CspB K7A): 6.4 ± 0.6 nM
Kd (Bs-CspB G54P): 220 ± 9 nM
Kd (Bs-CspB R56A): 11.8 ± 1.4 nM

B11: dT6 (ssDNA)
DNA: TTTTTT
Kd (Bs-CspB [2]): 326 ± 20 nM

B12: dC6 (ssDNA)
DNA: CCCCCC
Kd (Bs-CspB [2]): 12600 ± 1000 nM

B13: CTTTTTC (ssDNA)
DNA: CTTTTTC
Kd (Bs-CspB [5]): 33.7 ± 4.1 nM

B14: CTCTTTC (ssDNA)
DNA: CTCTTTC
Kd (Bs-CspB [5]): 3.9 ± 0.2 nM

B15: CTCTCTC (ssDNA)
DNA: CTCTCTC
Kd (Bs-CspB [5]): 10.8 ± 0.9 nM

B16: CTCTTCC (ssDNA)
DNA: CTCTTCC
Kd (Bs-CspB [5]): 66.2 ± 4.8 nM

B17: CTCCTTC (ssDNA)
DNA: CTCCTTC
Kd (Bs-CspB [5]): 12.5 ± 0.6 nM

B18: Y-box5 (ssDNA)
DNA: ATTGG
Kd (Bs-CspB [2]): 5300 ± 1000 nM

B19: Y-box7 (ssDNA)
DNA: TATTGGT
Kd (Bs-CspB [6]): 530 ± 50 nM

B20: Y-box12 (ssDNA)
DNA: CTGATTGGCCAA
Kd (Bs-CspB [7]): 2030 ± 390 nM
